# Results taken from patent publication CN114573698A (dated 2022).
# Several values for one entry are separate records, joined by “and”; a condition that tells them apart may be missing. Equal values may be shown once.
# T1: α2-Fc (human)
# T1 construct: no linker is mentioned; also called FcRn功能结构域α2与人Fc融合蛋白; FcRnα2
# T1 chain: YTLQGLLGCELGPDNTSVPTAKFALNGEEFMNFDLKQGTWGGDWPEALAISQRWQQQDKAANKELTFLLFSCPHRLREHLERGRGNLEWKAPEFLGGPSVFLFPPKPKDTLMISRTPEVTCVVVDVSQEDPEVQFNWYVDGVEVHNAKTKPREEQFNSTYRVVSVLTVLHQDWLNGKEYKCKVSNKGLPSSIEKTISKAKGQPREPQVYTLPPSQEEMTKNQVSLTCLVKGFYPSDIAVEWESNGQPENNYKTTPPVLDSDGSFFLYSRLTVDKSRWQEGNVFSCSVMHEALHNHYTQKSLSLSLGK
# What was measured:
# α2-Fc = molecular target: T1, α2-Fc; experiment: Western blot on domain-Fc fusion
# [1] = molecular target: T2, 人FcRn(β2M)-His蛋白 (human FcRn-ECD) (human, UniProt P61769 21-119); experiment: blocking ELISA pH 6.0, human IgG-biotin on plate-bound human FcRn-ECD (method of Example 4)
# T2 construct: Bought protein (Acro FCM-H5286); also called 人FcRn-ECD; FcRn-His
# [2] = molecular target: T2, 人FcRn(β2M)-His蛋白 (human FcRn-ECD); experiment: indirect ELISA, plate-bound human FcRn-ECD (method of Example 2.1)
# [3] = molecular target: T2, 人FcRn(β2M)-His蛋白 (human FcRn-ECD); experiment: blocking ELISA, human IgG on plate-bound human FcRn-ECD
binding result (α2-Fc),IC50 [1],EC50 [2],IC50 [3],Binder
binds,,,,"SPGA01-102 (antibody, V domains shown, Mouse monoclonal antibody from a hybridoma, purified on Protein G and detected with anti-mouse IgG; also called 鼠源抗人FcRn单克隆抗体) VH: QIQLVQSGPELKKPGETVKISCKASGYTFTNHGMNWLKQAPGKDLKWMGWINTYTGEPTYEDDFKGRFAFSLETSASTVYLQINNLKNEDTATYFCAREEIYGNYYYTMDYWGQGTSVTVSS VL: DIQMTQTTSSLSASLGDRVTISCSASQGISKYLNWYQQKPDGTVKLLIYYTSILHSGVPSRFSGSGSGTDYSLTISNLEPEDIATYFCQQYSKLPPTFGGGTKLEIT"
,0.0514 µg/mL and 0.34 nM,0.00973 µg/mL and 0.06 nM,,"SPGA01-ch102 (antibody, human IgG4 S228P, kappa, also called 嵌合抗体SPGA01-ch102; SPGA1-ch102) heavy: not shown light: DIQMTQTTSSLSASLGDRVTISCSASQGISKYLNWYQQKPDGTVKLLIYYTSILHSGVPSRFSGSGSGTDYSLTISNLEPEDIATYFCQQYSKLPPTFGGGTKLEITRTVAAPSVFIFPPSDEQLKSGTASVVCLLNNFYPREAKVQWKVDNALQSGNSQESVTEQDSKDSTYSLSSTLTLSKADYEKHKVYACEVTHQGLSSPVTKSFNRGEC"
,,0.00976 µg/mL and 0.06 nM,0.0122 µg/mL and 0.08 nM,"SPGA01-ch102mu (antibody, human IgG4 S228P, kappa, also called 突变的嵌合抗体SPGA01-ch102mu) heavy: QIQLVQSGPELKKPGETVKISCKASGYTFTNHGMNWLKQAPGKDLKWMGWINTYTGEPTYEDDFKGRFAFSLETSASTVYLQINNLKNEDTATYFCAREEIYGNYYYTMDYWGQGTSVTVSSASTKGPSVFPLAPCSRSTSESTAALGCLVKDYFPEPVTVSWNSGALTSGVHTFPAVLQSSGLYSLSSVVTVPSSSLGTKTYTCNVDHKPSNTKVDKRVESKYGPPCPPCPAPEFLGGPSVFLFPPKPKDTLYITREPEVTCVVVDVSQEDPEVQFNWYVDGVEVHNAKTKPREEQFNSTYRVVSVLTVLHQDWLNGKEYKCKVSNKGLPSSIEKTISKAKGQPREPQVYTLPPSQEEMTKNQVSLTCLVKGFYPSDIAVEWESNGQPENNYKTTPPVLDSDGSFFLYSRLTVDKSRWQEGNVFSCSVMHEALKFHYTQKSLSLSLGK light: DIQMTQTTSSLSASLGDRVTISCSASQGISKYLNWYQQKPDGTVKLLIYYTSILHSGVPSRFSGSGSGTDYSLTISNLEPEDIATYFCQQYSKLPPTFGGGTKLEITRTVAAPSVFIFPPSDEQLKSGTASVVCLLNNFYPREAKVQWKVDNALQSGNSQESVTEQDSKDSTYSLSSTLTLSKADYEKHKVYACEVTHQGLSSPVTKSFNRGEC"
